Patent US6534300

Assays:
porcine uteroferrin = porcine uteroferrin (UniProt P09889)
Chain of UniProt P09889 (P09889 22-340): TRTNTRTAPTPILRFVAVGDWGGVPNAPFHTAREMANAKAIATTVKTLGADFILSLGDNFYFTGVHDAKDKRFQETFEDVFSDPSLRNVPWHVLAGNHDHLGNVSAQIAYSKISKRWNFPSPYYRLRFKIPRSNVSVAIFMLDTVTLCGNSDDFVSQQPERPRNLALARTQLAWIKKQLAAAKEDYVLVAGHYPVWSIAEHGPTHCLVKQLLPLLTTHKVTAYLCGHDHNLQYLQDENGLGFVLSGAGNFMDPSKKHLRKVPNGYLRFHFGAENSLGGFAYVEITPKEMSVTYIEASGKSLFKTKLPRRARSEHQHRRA

## bovine UDP-N-acetylglucosamine: lysosomal enzyme N-Acetylglucosamine-1-phosphotransferase
Cathepsin D
  Km as acceptor for transfer of GlcNAc-1-P: Kms below 20 µM
Porcine uteroferrin
  Km as acceptor for transfer of GlcNAc-1-P: Kms below 20 µM
RNAse B
  Km as acceptor for transfer of GlcNAc-1-P: the Km was not reached at the solubility limit of the protein (at 600 µM)
